Patent US20220412967A1, “METHOD FOR CAPTURING CANDIDATE SUBSTANCE THAT CAN BIND TO COMPLEX OF MR1 PROTEIN AND BETA2 MICROGLOBULIN PROTEIN, METHOD FOR PRODUCING CANDIDATE SUBSTANCE THAT CAN BIND TO COMPLEX OF MR1 PROTEIN AND BETA2 MICROGLOBULIN PROTEIN, AND METHOD FOR PRODUCING LIGAND CANDIDATE SUBSTANCE FOR MAIT CELL” (OSAKA UNIVERSITY, priority 2019, published 2022)

What was measured:
[1] = target: T1, complex of soluble mMR1A, soluble mβ2m and Ac6FP (Mus musculus, UniProt Q8HWB0); assay: Thermodynamic stability of the complex (Tycho NT.6, F350/F330, 37 to 95° C.); assay type: physicochemical; conditions: for melting point (inflection point of curve) of the complex: FIG. 1B
T1 construct: made in house
Text: When a MR1 protein, a β2 protein, and Ac6FP form a complex to form a normal folding, tryptophan in the protein can be measured at an absorbance of 330 nm. On the other hand, when the complex is heat treated and the complex is denatured, tryptophan in the protein is exposed by the thermal denaturation, and the tryptophan can be measured at an absorbance of 350 nm.
After mixing the soluble mMR1A and the soluble mβ2m obtained in Example 1 (1), Ac6FP (Cat. No.: 11.418, manufactured by Schircks Laboratories Co., Ltd.) was further added to the obtained mixed solution to form the complex in a buffer solution (reaction system of complex). The composition of the buffer was as follows: 100 mmol/l Tris-HCl (pH 8.1), 2 mmol/l EDTA (pH 8.1), 400 mmol/l L-Arginine, and 5 mol/1 Urea, and the pH was set to 8.1. In the reaction system of 250 ml of complex, the concentration of the soluble mMR1A was 30 μg/ml (total amount: 7.5 mg), the concentration of the soluble mβ2m was 30 μg/ml (total amount: 7.5 mg), and the concentration of Ac6FP was 8 μg/ml (total amount: 2 mg). The reaction temperature of the reaction system of the complex was set at 4° C., and the reaction time was set at 9 hours.
Sodium cyanoborohydride (NaBH3CN) was added to the obtained complex (0.01 mg/ml), so as to have a predetermined concentration (0, 0.005, 0.05, 0.5, or 5 mmol/1) and subjected to the reduction treatment at 4° C. for 5 minutes. Note that the pH in the reaction solution of the reduction reaction was set to about 7.2.
8 to 10 μl of a sample containing the complex after the reduction treatment was collected in a capillary and set to Tycho™ NT.6. The temperature was then increased to 37 to 95° C., and the thermodynamic stability of the complex was calculated from the melting point (an inflection point of curve).
FIGS. 1A and 1B are graphs of the thermodynamic stability of the complex. In FIGS. 1A and 1B, the horizontal axis indicates the temperature, and the vertical axis indicates the ratio of the absorbance at 350 nm (F350) to the absorbance at 330 nm (F330) (F350/F330). […]

[2] = target: T2, soluble murine MR1 protein isoform A (mouse, UniProt Q8HWB0 19-288); assay: refolding of E. coli proteins with the small-molecule ligand Ac6FP; complex then purified by anion exchange and gel filtration chromatography
T2 construct: also called soluble mMR1A; mMR1
Protocol: After the dialysis, the obtained sample was subjected to anion exchange chromatography under the purification condition 1 below to purify a crude purified product including the complex. After the start of the purification, the resultant was fractionated at 1 ml/fraction, and five fractions between 6 to 7 minutes from the start of purification were collected as fractions of the crude purified product.
Analytical instrument: AKTA pure25 (manufactured by GE Healthcare) Column: POROS™ HQ (manufactured by Applied Biosystems) [0108] […] 0 min: (A:B=100:0) [0111] 7.9 min: (A:B=50:50) Flow rate: 5 ml/min Fractionation volume: 1 ml/fraction
The obtained composition was then subjected to gel filtration chromatography under the purification condition 2 below to purify the complex from the crude purified product. After the start of the purification, the resultant was fractionated at 0.5 ml/fraction, and 4 fractions between 13 and 15 minutes from the start of purification were collected as a fraction containing the complex.

T2 sequence (Q8HWB0 19-288): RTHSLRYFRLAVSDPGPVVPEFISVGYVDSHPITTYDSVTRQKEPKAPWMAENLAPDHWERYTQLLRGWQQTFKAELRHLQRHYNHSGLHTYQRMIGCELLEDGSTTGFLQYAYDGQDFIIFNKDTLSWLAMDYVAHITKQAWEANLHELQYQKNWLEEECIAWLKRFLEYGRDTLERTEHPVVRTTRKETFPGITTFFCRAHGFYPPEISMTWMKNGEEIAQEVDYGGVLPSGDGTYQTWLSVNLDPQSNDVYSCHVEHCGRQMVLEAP

binding result [2] | Molecule | melting point (inflection point of curve) of the complex ([1]; control not subjected to the reduction treatment (0 mmol/l NaBH3CN)) [°C] | melting point of the complex versus control not subjected to the reduction treatment ([1]; reduction treatment with NaBH3CN (0.005 to 5 mmol/l), FIG. 1A) | melting point (inflection point of curve) of the complex ([1]; treated with 5 mmol/l of sodium cyanoborohydride, 4° C., 5 minutes, pH about 7.2) [°C]
– | complex: complex formed from soluble mMR1A (SEQ ID NO: 10), soluble mβ2m (SEQ ID NO: 14) and the ligand Ac6FP | 72.2 | increased | 73.9
binds | soluble mouse β2 microglobulin protein (other, Recombinant from Escherichia coli; also called soluble mβ2m) b2m: IQKTPQIQVYSRHPPENGKPNILNCYVTQFHPPHIEIQMLKNGKKIPKVEMSDMSFSKDWSFYILAHTEFTPTETDTYACRVKHASMAEPKTVYWDRDM | – | – | –
